Measured values reported in the nanobody polyreactivity screen of Harvey et al. (2022).

Test: yeast display, Sf9 membrane polyspecificity reagent, FACS + sequencing; frameworks hold sequencing errors
Method in brief: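 A nanobody's polyreactivity label depends on the gate it was sorted from. Yeast display cells were stained with 10% biotinylated, detergent-solubilized Sf9 membrane reagent for 1 hour at 4 °C, enriched on streptavidin microbeads and sorted by FACS. The low and high (top ~1%) gates were set on anti-HA fluorescence for expression and streptavidin fluorescence for reagent binding.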

Sequence | polyreactivity (PSR sort gate)
QVQLVESGGGLVQAGGSLRLSCAASGFIFPRYAMGWYRQAPGKERELVAAISYSGGSTYYADSVKGRFTISRDNAKNTVYLQMNSLKPEDTAVYYCAARLFKDSWMDYWGQGTQVTVSS | high polyreactivity
QVQLVESGGGLVQAGGSLRLSCAASGFIFPRYAMGWYRQAPGQERELVAAISKSGGRTYYADSGKGRFTISRDYAKNTFYLQMNSLNPEDTAVYYCAAGRISRFSRYYYWGQGTQVTVSS | high polyreactivity
QVQLVESGGGLVQAGGSLRLSCAASGFIFPRYAMGWYRQAPGTERELVAAISRGGRTNYADSVKGRFTISRDNAKNTVYFQMNSLKPEDTAVYYCAKKYYLSGSRADDSWGQGTQVTVSS | high polyreactivity
QVQLVESGGGLVQAGGSLRLSCAASGFIFPTYAMGWYRQATGKERELVAAISYRGGITSYADSVKGRFTISRDNAKNTVYLQMNSLKPEDSAVYYCAARGAWGYEYWGQGTQVTVSS | low polyreactivity
QVQLVESGGGLVQAGGSLRLSCAASGFIFPVNAMGWYRQAPGKERELVAGISRGGRTNYADSVKGRFTISRDNAKYSVYLQMNSLKPEDTAVYYCAAESYRAYKYDSWGQGTQVTVSS | low polyreactivity
QVQLVESGGGLVQAGGSLRLSCAASGFIFPVYAMGWYRQAPGKERELVAAIRRGGSTNYADSVKGRFTISRDNAKNTVYLQMNSLKPEDTAVYYCAVEYQSPDDYWGQGTQVTVSS | low polyreactivity
QVQLVESGGGLVQAGGSLRLSCAASGFIFPWNAMGWYRQAPGKERELVAAISFSGGSTYYADSVKGRFTISRDNAKNTVYLQMNSLKPEDTAVYYCAKRTWDLRRTRHYYWGQGTQVTVSS | low polyreactivity
QVQLVESGGGLVQAGGSLRLSCAASGFIFPWYTMGWYRQAPGKERELVAVINQSGGSTYYADSVKGRFTISRDNAKNPVYLQMNSLKPEDTAVDYCAAKSYYSWGQGTQVTVSS | high polyreactivity
QVQLVESGGGLVQAGGSLRLSCAASGFIFPYNAMGWYRQAPGKDRELVAAISWSGSNTYYADSVNGRFTISRDNAMNTVYLQMNSLKPEDTAVYYCAARHSVYYFVQRNGRYGYWGQGTQVTVSW | high polyreactivity
QVQLVESGGGLVQAGGSLRLSCAASGFIFPYNAMGWYRQAPGKERELVAGITSSGGGTYYADSVKGRFTISRDNAKNTVYLQMNSLKPEDTAVYYCNKVWSYHLYPYDYWGQGTQVTVSS | high polyreactivity
QVQLVESGGGLVQAGGSLRLSCAASGFIFPYNAMGWYRQAPGKERELVAVISSSGGDTYYADSVKGRFTISRDNAKNTVYLQMNSLKPEDTAVYYCAADSYYGYEYWGQGTQVTVSS | low polyreactivity
QVQLVESGGGLVQAGGSLRLSCAASGFIFPYYAMGWYRPAPGKERELVAAITSSGGSTYYADSVKGRFTISRDNAKNTVYLQMNSLKPEDTAVYYFNAYVRRTRVYDYWGQGTLVTVSS | high polyreactivity
QVQLVESGGGLVQAGGSLRLSCAASGFIFPYYAMGWYRQAPGKERELVAAITSSGGSTYYADSVKGRFTISRDTAKNTVYLQMTSLKPEDNAVYYCNAYVRRTRDYDYWGQGTQVTVSS | high polyreactivity
QVQLVESGGGLVQAGGSLRLSCAASGFIFQANAMGWYRQAHGKERELVAAIRSGDRTYYADSVKGRFTISRDNAKNTVYLQMNSLKPEDTAVYYCAAFYHHYYRYDYWGQGTQVTVSS | low polyreactivity
QVQLVESGGGLVQAGGSLRLSCAASGFIFQAYAMGWYRQAPGKERELVASISYSGSRTYYADSVKGRFTISRDNAKNTVYLQMNSLKPEDTAVYYCAAGPRYWAPWFGRDYEYWGQGTQVTVSS | high polyreactivity
QVQLVESGGGLVQAGGSLRLSCAASGFIFQGYVMGWYRQAPGKEREFVAAISRSGGTTFYADSVKGRFTISRDNAKNTVYLQMNSLKPEDTAVYYCNRARLGRPGYDYWGQGTQVTVSS | high polyreactivity
QVQLVESGGGLVQAGGSLRLSCAASGFIFQRNAMGWYRQAPGKERELVAAISWTGGSTYYADSVKGRFTISRDNAKNTVYLQMNSLKPDVTAVYYCAKYGSGPYGYWGQGTQVTVSS | high polyreactivity
QVQLVESGGGLVQAGGSLRLSCAASGFIFRAYAKRWYRPAPGKERELFAALTKRSGTTYSADSVKRRFTISRDNAKNTVYVQMNSLKPEDTAVYFCAAKTLYNSGTQDRAMGYWGQGTQVTVSS | high polyreactivity
QVQLVESGGGLVQAGGSLRLSCAASGFIFRDNAMGWYRQAPGKERELVAAISKSGGRTYYADSVKGRFTISRDNAKNTVYLLMNSLKPEDTAVYYCAADTYYNLGNYWGQGTQVTVSS | high polyreactivity
QVQLVESGGGLVQAGGSLRLSCAASGFIFRDNAMGWYRQAPGKERELVAASSSRGGSTYYADSVKGRFTISRDNAKNTVYLQMNSLKPEDTAVYYCAKRPYKYRVQLDSWGPGTQVTVSS | high polyreactivity
QVQLVESGGGLVQAGGSLRLSCAASGFIFRFNAMGWYRQAPGKERELVAGITWSGGSTYYADSVKGRFTISRDNAKNTVYLQMNSLKPEDTAVYYCAADNPYLGRKFDYWGQGTQVTVSS | high polyreactivity

Sequence | polyreactivity (PSR sort gate)
QVQLVESGGGLVQAGGSLRLSCAASGFIFRGNGMGWYRQAPGNERELVAAISKSGGRTYYADSVKGRFTISRDNAKNTVYLQMNSLKPEDTAVYYCNARRFWRGDYWGQGTQVTVSS | high polyreactivity
QVQLVESGGGLVQAGGSLRLSCAASGFIFRGYAMGWYRQAPGKERELVAAISRRGGSTYYADSVKGRFTISRDNAKNTVYLQMNSLKPEDTAVYYCNARIRYVYWHSYDYWGQGTQVTVSS | high polyreactivity
QVQLVESGGGLVQAGGSLRLSCAASGFIFRGYAMGWYRQAPGKERELVAAITGGGGRTYYADSVKGRFTISRDNAKNTVYLQMNSLKPEDTAVYYCARRFAYSFDYGYWGQGTQVTVSS | high polyreactivity
QVQLVESGGGLVQAGGSLRLSCAASGFIFRKYAMGWYRQAPGKERELVAAIRQRGGTTYYADSVKGRFTISRDNAKNTVYLQMNSLKPEDTAVYYCAAPYSSAYKYDYWGQGTQVTVSS | high polyreactivity
QVQLVESGGGLVQAGGSLRLSCAASGFIFRKYAMGWYRQAPGTERELVAAIRQRGGTTYYADSVKGRFTISRDNAKNTVSLQMNSLKPEDTAVNYCAAPYSSAYKYDYWGQGTQVTVSS | high polyreactivity
QVQLVESGGGLVQAGGSLRLSCAASGFIFRLNTMGWYRQAPGKERELVATISSGGSTNYADSVKGRFTISRDNAKITVYLQMNSLKPEDTAVYYCAKKKTRYGGSYNYWGQGTQVTVSS | high polyreactivity
QVQLVESGGGLVQAGGSLRLSCAASGFIFRLYDMVRYRQAPGKERELVAAISSGGRTNYADSVKGRFTISSDNPKNTVYLQMNSLKPEDTAVYYCAARSIFGYRSYGYWGQGTQVTVSS | high polyreactivity
QVQLVESGGGLVQAGGSLRLSCAASGFIFRPYVMGWYRQAPGKERELVAAISRSGSSTYYADSVKGRFTISRDNAKNTVYLQMNSLKPEDTAVYYCNAVYYLYKGDYWGQGTQVTVSS | high polyreactivity
QVQLVESGGGLVQAGGSLRLSCAASGFIFRRNTMGWYRQAPGKERELVAVITWSGGRTYYADSVKGRFTISRDNAKNTVYLQMNSLKPEDTAVYDCTAEQWWSLDYWGQGTQVTVSS | low polyreactivity
QVQLVESGGGLVQAGGSLRLSCAASGFIFRRYAMGWYRQAPGKERELVAAIRWDDGNTYYADSVKGRFTISRDNAKNTVYLQMNSLKPEDTAVYYCYADKWSSTDDWLYDYWGQGTQVTVSS | low polyreactivity
QVQLVESGGGLVQAGGSLRLSCAASGFIFRRYAMGWYRQAPGKERELVAAISSGGRTYYADSVKGRFTISRDNAKNTVYLQMNSLKPEDTAVYYCAAYSPYLRSWYDYWGQGTQVTVSS | high polyreactivity
QVQLVESGGGLVQAGGSLRLSCAASGFIFRRYAMGWYRQAPGKERELVAAITRSGGSTYYADSVKGRFTISRDNAKNTVYLQMNSLKPEDTAVYYCAAPYFGANGKPEYGYWGQGTQVTVSS | high polyreactivity
QVQLVESGGGLVQAGGSLRLSCAASGFIFRRYAMGWYRQAPGKERELVAAITRSGGSTYYADSVKGRFTISRDTSKNTVYLQMNSLNPEDTAVYYCATKSSGPVLGYGYDYWGQGTQVTVSS | high polyreactivity
QVQLVESGGGLVQAGGSLRLSCAASGFIFRRYTMGWYRQAPGKERELVATITRSVNTDYADSVKGRFTISRDNAKNTVYLQMNSLKPEDTAVYYCAARKYYYFPVAYDYWGQGTQVTVSS | high polyreactivity
QVQLVESGGGLVQAGGSLRLSCAASGFIFRRYVMGWYRQAPGKERELVAAISNGGGRTYYADSVKGRFTISRDNAKNTVYLQMNSQKPEDTAVYYCAAYPRGPLAPDYDYWGQGTQVSVSS | high polyreactivity
QVQLVESGGGLVQAGGSLRLSCAASGFIFRSYAMGWYRQAPGKERELVAAISDGGGSTYYADSVKGRFTISRDNAKKTVYLQMNSLKPEDTAVYYCNAVYHPKGPSGYGYWGQGTQVTVSS | low polyreactivity
QVQLVESGGGLVQAGGSLRLSCAASGFIFRSYAMGWYRQAPGKERELVAAISFSGGRTYYADSVKGRFTISRDNAKNTVYLQMNSLKPEDTAVYYCAAVPARIGVVLHIYTDSHYDYWGQGTQVTVSS | low polyreactivity
QVQLVESGGGLVQAGGSLRLSCAASGFIFRSYAMGWYRQAPGKERELVAAITKSGGRTYYADSVKGRFTISRDNAKNTVYLQMNSLKPEDSAVYYCAADQTSYSTSRRYDYWGQGTQVTVSS | high polyreactivity
QVQLVESGGGLVQAGGSLRLSCAASGFIFRSYAMGWYRQAPGKERELVAAITRSGGSTYYADSVKGRFTISRDNAKNTDYLQMNSLKPEDTAVYYCATRRYWYYILDYWGQGTQVTVSS | high polyreactivity
QVQLVESGGGLVQAGGSLRLSCAASGFIFRSYVMGWYRQAPGKERELVAAITRSGVRTYYADSVKGRFTISRDNAKNTVYLQMNSLKPEDTAVYYCNADFSATRYWPGNYWGQGTQVTVSS | high polyreactivity
